B1: recombinant voltage-dependent anion-selective channel VDAC3 from A. thaliana, reconstituted in a lipid bilayer (natural protein, UniProt Q9SMX3 1-274, looked up)
chain: MVKGPGLYTEIGKKARDLLYRDYQGDQKFSVTTYSSTGVAITTTGTNKGSLFLGDVATQVKNNNFTADVKVSTDSSLLTTLTFDEPAPGLKVIVQAKLPDHKSGKAEVQYFHDYAGISTSVGFTATPIVNFSGVVGTNGLSLGTDVAYNTESGNFKHFNAGFNFTKDDLTASLILNDKGEKLNASYYQIVSPSTVVGAEISHNFTTKENAITVGTQHALDPLTTVKARVNNAGVANALIQHEWRPKSFFTVSGEVDSKAIDKSAKVGIALALKP
notes: VDAC3, mitochondrial outer membrane voltage-dependent anion-selective channel 3, Arabidopsis thaliana; cDNA cloned into pCold I with SacI and XbaI; Protein:lipid 1:1000 in DOPC; formed a polymer-supported membrane on the RIf chip; The tag is inferred from the vector; also called AtVDAC3
B2: recombinant thioredoxin Trx-h3 from A. thaliana (natural protein, UniProt Q42403 1-118, looked up)
chain: MAAEGEVIACHTVEDWTEKLKAANESKKLIVIDFTATWCPPCRFIAPVFADLAKKHLDVVFFKVDVDELNTVAEEFKVQAMPTFIFMKEGEIKETVVGAAKEEIIANLEKHKTVVAAA
notes: Thioredoxin h3 (Trx-h3), Arabidopsis thaliana

Assays:
Settings in all cases: both partners purified
[1] = target: T1, reduced recombinant GapC1 (cytosolic NAD-dependent glyceraldehyde-3-phosphate dehydrogenase) from A. thaliana (A. thaliana, UniProt P25858 1-338); assay: reflectance interferometry (RIf); VDAC3 in a polymer-supported DOPC membrane on the chip; GapC1 pre-treated with 2 mM DTT (reduced) injected at different amounts in a flow chamber; rinsing with HBS buffer; association and dissociation phases fitted separately; protein-free lipid membrane as negative control
T1 construct: GapC1, cytosolic NAD-dependent glyceraldehyde-3-phosphate dehydrogenase, Arabidopsis thaliana, At3g04120; Used as analyte on VDAC3 (pre-treated with 2 mM DTT) and immobilised via NHS in buffer with 2 mM DTT for Trx-h3; also called reduced GapC1; GAPDH; source: desalted before use; pre-treated with 2 mM DTT

[2] = target: T2, oxidized recombinant GapC1 from A. thaliana (pretreated with 0.5 mM H2O2 + 0.5 mM GSH) (A. thaliana, UniProt P25858 1-338, oxidized by pretreatment with 0.5 mM H2O2 + 0.5 mM GSH; modified residues not stated for this sample); assay: reflectance interferometry (RIf); VDAC3 in a polymer-supported DOPC membrane on the chip; GapC1 pre-treated with 0.5 mM H2O2 + 0.5 mM GSH (oxidized) injected at different amounts in a flow chamber; rinsing with HBS buffer; association and dissociation phases fitted separately; protein-free lipid membrane as negative control
T2 construct: GapC1, cytosolic NAD-dependent glyceraldehyde-3-phosphate dehydrogenase, Arabidopsis thaliana, At3g04120; Same recombinant protein as m1, oxidised in vitro; also called oxidized GapC1; source: desalted before use; pre-treated with 0.5 mM H2O2 + 0.5 mM GSH

[3] = target: T1, reduced recombinant GapC1 (cytosolic …); assay: reflectance interferometry (RIf); GapC1 (or the control mCitrine) immobilised via NHS on a PEG surface; Trx-h3 injected at different concentrations; 20 mM HBS-buffer (100 mM NaCl, 0.01% Triton X-100, pH 7.5) with 2 mM DTT; KD from equilibrium binding signals by Scatchard plot

T1 sequence (P25858 whole entry): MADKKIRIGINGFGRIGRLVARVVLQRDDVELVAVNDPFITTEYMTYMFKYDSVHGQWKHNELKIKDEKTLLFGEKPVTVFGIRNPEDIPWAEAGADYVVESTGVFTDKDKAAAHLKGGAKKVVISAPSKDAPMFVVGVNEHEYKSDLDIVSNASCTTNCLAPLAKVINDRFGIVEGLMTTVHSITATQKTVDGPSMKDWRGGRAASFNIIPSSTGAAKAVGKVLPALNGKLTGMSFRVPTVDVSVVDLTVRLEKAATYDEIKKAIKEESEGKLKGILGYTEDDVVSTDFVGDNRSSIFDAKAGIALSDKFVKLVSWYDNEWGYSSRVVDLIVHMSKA
T2 sequence (P25858 whole entry): as above

Binder | Kd [1] [nM] | Kd [2] [nM] | Kd [3] [nM]
B1 | 236 | 556 | –
B2 | – | – | 40000

Reference: paper PMC6127989, “Cytosolic GAPDH as a redox-dependent regulator of energy metabolism” (BMC Plant Biology, 2018)
